Patent publication US5336488A, “Method of treating or preventing mastitis in animals with involuting mammary glands by administering recombinant cytokines” (American Cyanamid Company, priority 1992, dated 1994)

What was measured:
[1] = tested on: S. aureus; assay: Therapy of established S. aureus mastitis infections; type: in vivo, S. aureus (in lactating Holstein dairy cattle)
Procedure: The percentage of quarters clearing the infection for greater than 1 milking (RESPONDING), as compared to the percentage of quarters which actually cure their infections (CURE) is a measure of the failure of the host cells to kill the bacteria. The relapse rate is the greatest for r-BoIL-2 (combined relapse rate of 40% for the 10 mg dose X's 3). […] Furthermore, if activation of the host cells is effective, as indicated by the r-BoIL-2 and r-BoGM-CSF, then a combination therapy with r-BoIL-1 or antibiotics is useful.
^1 S. aureus infections are established 2-3 weeks prior to treatment.
Treatments are administered after the AM or PM milking by 1-3 successive
intramammary infusions. A total of 120 mammary glands from 28 different
lactating Holstein dairy cattle are used. Recombinant bovine
interleukin1(IL-1) and interleukin2(IL-2) are obtained from IMMUNEX Corp.
Seattle, WA. Na cephapirin is prepared is PBS; and CefaLak ®
(BristolMeyers) is used according to package# insert instructions.
^2 Cytokines are infused intramammary through the teat canal after th
PM milking at the indicated intervals. The total dose is delivered in a
total volume of 10 ml of sterile PBS. The biological activity of rBoIL-1
and rBoIL-2 is 32,000 Units/μg and 22,000 Units/μg, respectively. A
total dose per infusion 200 mg of Na cephapirin and CefaLak ® is
administered after consecutive PM and AM milkings, according to described
^3 The % RESPONDING = quarters which transiently (> 1 milking) are
free of S. aureus divided by the total number of quarters treated.
^4 The % CURED QUARTERS = # of quarters which clear their infection
and remain free of S. aureus divided by the total number of quarters
treated. Infections are considered to have relapsed if there are > 1 CFUs
from three consecutive AM milkings, or > 20 CFUs for two consecutive afte
therapy at anytime during the 14 day monitoring period.
^5 The % RELAPSE = [1 - {[…]}] ×

[2] = tested on: Bovine Mammary Gland; assay: Dose response of bovine mammary gland to intramammary infusion: somatic cell influx into milk; type: in vivo, bovine (Holstein dairy cattle)
Procedure: FIG. 1: Dose Response of Bovine Mammary Gland to Intramammary Infusion of Recombinant Cytokines
Five fold serial dilutions of r-BolL-1 (recombinant bovine interleukin-1) from 312.5 μg to […]: r-BoIL-2 (recombinant bovine interleukin-2) from 40 mg to 0.1 mg: and r-BoGM-CSF (recombinant bovine granulocyte macrophage colony stimulating factor) from 0.2 mg to […] are administered at time 0 into 3-4 mammary glands from normal lactating Holstein dairy cattle. A total of 54 mammary gland quarters, 3-4 per group, are infused through the teat canal with various concentrations of recombinant bovine cytokines after the morning milking. Milk samples are collected and the number of viable somatic cells counted on a Coulter® ZM with a C256 Channelyzer. The data is expressed as the somatic cell count per ml of milk
These doses are guidelines for quantitative induction of somatic cells, but significant beneficial qualitative changes can be induced with lower doses. The specific biological activity for r-BoIL-1 as a chemoattractant is approximately 10,000 fold greater than r-BoIL-2, although the in vitro specific bioactivities are equivalent. Active IL-2 inhibition or decreased biostability in milk might explain this discrepancy. The peak number of cells after r-BoIL-1 infusion with a maximal tolerable dose is 4-5 fold greater than r-BoIL-2. The kinetics of PMN migration into the mammary gland is such that migration occurs 8- 24 hours sooner for r-BoIL-1 infusions […] the BolL-2 infusion depending upon the dose. The dominant cell type after r-BoIL-1 or r-BoIL-2 infusion is PMNs.

[3] = tested on: milk PMNs; assay: Quantity of milk PMNs after intramammary infusion; type: in vivo, bovine (Holstein dairy cattle)
Procedure: (§1) FIGS. 2(A-I): Quantity and Quality of Milk PMNs from Mammary Glands Infused with r-BolL-1 or r-BoIL-2
(§2) A total of 12 mammary glands from normal lactating Holstein dairy cattle are infused through the teat canal with either 200 μg of r-BoIL-1; 2 mg of r-BoIL-2; or 1 mg of r-BoGM-CSF. Milk samples are collected and the number of viable somatic cells counted on a Coulter® ZM with a C256 Channelyzer. The data is expressed as the somatic cell count per ml of milk sampled at 16, 40, 64 and 88 hours after infusion for r-BoIL-1 (A); r-BoIL-2 (D); or r-BoGM-CSF(G). The total percentage of phagocytosis by milk PMNs (polymorphonuclear cells) is quantitatively measured by flow cytometry by measuring the percentage of cells ingesting 2μ fluorescent beads for r-BoIL-1 (B); r-BoIL-2(E); or r-BoGM-CSF(H). The total population is first gated by forward angle light scatter, FALS and 90° light scatter to only consider viable polymorphonuclear cells. The induction of superoxide after PMA (520.eta.g)stimulation is also monitored using a whole cell cytochrome-c reduction assay, for r-BoIL-1 (C); r-BoIL-2(F); or r-BoGM-CSF(I). PMNs from untreated milk could not be induced to produce superoxide, while peripheral blood PMNs are inducible in a range of 5-15 .eta.M O2 /Minute/10^7 PMNs.

[4] = tested on: milk PMNs; assay: Phagocytosis of fluorescent beads by milk PMNs (flow cytometry) after intramammary infusion; type: in vivo, bovine (Holstein dairy cattle); conditions: FIG. 2H
Procedure: as §1, §2

[5] = tested on: milk PMNs; assay: Inducible superoxide of milk PMNs after PMA stimulation (cytochrome-c reduction); type: in vivo, bovine (Holstein dairy cattle); conditions: r-BoGM-CSF, vs resident PMNs, FIG. 2I
Procedure: as §1, §2

[6] = tested on: S. aureus; assay: Prevention of S. aureus mastitis in lactating animals; type: in vivo, S. aureus (in lactating Holstein dairy cattle); conditions: for % CONTROL / % INFECTED: 1 mg, vs Control 2 (30 CFUs)
Description: This maximal protection correlates with the peak quantitative biological response for this cytokine. […] This also correlates with the peak quantitative biological response of this cytokine and also marks the qualitative increase in phagocytosis and inducible superoxide, FIG. 2D & 2E.
^1 Single intramammary infusion administered after the PM milking. A
total of 100 mammary glands from 22 different lactating Holstein dairy
^2 All glands are free of bacteria on 5 successive samples after the
AM milking prior to the initial infusion.
^3 The total dose in mass of protein is indicated. The biological
^4 Infusions of cytokines were administerd simultaneously with S.
aureus 0, 24 or 48 hours proir to challenge with 30-200 CFUs of S.
^5 Individual quarters are considered cured if the milk samples remai
free of S. aureus. for 14 days after intramammary challenge with of S.
^6 The % Control = (1 - {% Infected After Therapy divided by Infected
in Control Quarters)} × 100.
*Quarters in Control 1 are challenged with 250 CFUs of S. aureus..
Quarters in Control 2 are challenged with 30 CFUs of S. aureus.

[7] = Specific biological activity of recombinant cytokine protein; conditions: mass of protein

Molecule: CC(=O)OCC1=C(C(=O)O)N2C(=O)[C@@H](NC(=O)CSc3ccncc3)[C@H]2SC1 [Na Cephapirin, sodium cephapirin, reference compound]
- % CURES ([1]; 200 mg, interval 12 hrs): 42%
- % RELAPSE ([1]; 200 mg, interval 12 hrs): 51%
- % RESPONSE ([1]; 200 mg, interval 12 hrs): 86%
- relapse rate ([1]; as quoted in text of Example 5): 57%

B1: recombinant bovine granulocyte macrophage colony stimulating factor (protein, UniProt P11052 18-143, looked up)
Granulocyte-macrophage …: APTRPPNTATRPWQHVDAIKEALSLLNHSSDTDAVMNDTEVVSEKFDSQEPTCLQTRLKLYKNGLQGSLTSLMGSLTMMATHYEKHCPPTPETSCGTQFISFKNFKEDLKEFLFIIPFDCWEPAQK
- influx of cells into the mammary gland ([2]; intramammary infusion of up to 5 mg): fails to elicit any significant influx of cells into the mammary gland
- infiltration of somatic cells into the milk ([2]; intramammary infusion, lactating cattle, FIG. 1): no significant chemoattractant activity
- quantitative changes in milk PMNs ([3]; as summarised in Example 4): only minor quantitative changes in milk PMNs
- quantitative increase in milk PMNs ([3]; even with a 5 mg intramammary dose, FIG. 2G): fails to elicit any significant quantitative increase in milk PMNs
- phagocytic ability of the cells in the milk of treated glands ([4]; 24 and 48 hours): increase phagocytic ability
- percent of cells which are phagocytic ([4]; r-BoGM-CSF): enhanced
- increase in phagocytosis, duration ([4]; r-BoGM-CSF, up to 112 hrs): maintained above pre-infusion levels for up to 112 hrs
- inducible superoxide production [5]: increased over the resident PMNs
- % CONTROL ([6]; -24 hrs): 76%
- % INFECTED ([6]; -24 hrs): 20%
- % CONTROL ([6]; -48 hrs): 76%
- % INFECTED ([6]; -48 hrs): 20%
- protection from S. aureus ([6]; administered 24 and 48 hours prior to challenge): good protection from S. aureus
- protection from subsequent S. aureus challenge ([6]; intramammary infusion, Table 1): capable of protecting the host from subsequent S. aureus challenge
- biological activity [7]: 38,000 Units/μg
